Data: PMC4322223, “Biochemical and structural characterization of a thermostable β-glucosidase from Halothermothrix orenii for galacto-oligosaccharide synthesis” (Applied Microbiology and Biotechnology, 2014)

Key:
Assay in all cases: purified protein
Conditions in all cases: 65 °C, 20 mM HEPES, 150 mM NaCl, pH 7.0
purified protein [1] = substrate: O=[N+]([O-])c1ccc(O[C@@H]2O[C@H](CO)[C@@H](O)[C@H](O)[C@H]2O)cc1
purified protein [2] = substrate: O=[N+]([O-])c1ccc(O[C@@H]2O[C@H](CO)[C@H](O)[C@H](O)[C@H]2O)cc1
purified protein [3] = substrate: O=[N+]([O-])c1ccccc1O[C@@H]1O[C@H](CO)[C@@H](O)[C@H](O)[C@H]1O; assay type: biochemical, Halothermothrix orenii
purified protein [4] = substrate: O=[N+]([O-])c1ccccc1O[C@@H]1O[C@H](CO)[C@H](O)[C@H](O)[C@H]1O; assay type: biochemical, Halothermothrix orenii

B1: HoBGLA (Halothermothrix orenii H 168) (protein)
chain: MAKIIFPEDFIWGAATSSYQIEGAFNEDGKGESIWDRFSHTPGKIENGDTGDIACDHYHLYREDIELMKEIGIRSYRFSTSWPRILPEGKGRVNQKGLDFYKRLVDNLLKANIRPMITLYHWDLPQALQDKGGWTNRDTAKYFAEYARLMFEEFNGLVDLWVTHNEPWVVAFEGHAFGNHAPGTKDFKTALQVAHHLLLSHGMAVDIFREEDLPGEIGITLNLTPAYPAGDSEKDVKAASLLDDYINAWFLSPVFKGSYPEELHHIYEQNLGAFTTQPGDMDIISRDIDFLGINYYSRMVVRHKPGDNLFNAEVVKMEDRPSTEMGWEIYPQGLYDILVRVNKEYTDKPLYITENGAAFDDKLTEEGKIHDEKRINYLGDHFKQAYKALKDGVPLRGYYVWSLMDNFEWAYGYSKRFGLIYVDYENGNRRFLKDSALWYREVIEKGQVEAN
notes: full length, 451 residues, GH1; pNIC28-Bsa4 N-terminal His6-TEV tag cut off with TEV protease; expressed in E. coli BL21(DE3); 53 kDa
Purified protein [1]
  Km: 0.296 ± 0.001 mM
  kcat: 55.2 s⁻¹
  kcat/Km: 187000 M⁻¹ s⁻¹
Purified protein [2]
  Km: 8.34 ± 0.61 mM
  kcat: 156 s⁻¹
  kcat/Km: 18700 M⁻¹ s⁻¹
Purified protein [3]
  Km: 0.386 ± 0.002 mM
  kcat: 94.6 s⁻¹
  kcat/Km: 245000 M⁻¹ s⁻¹
Purified protein [4]
  Km: 6.35 ± 0.8 mM
  kcat: 288 s⁻¹
  kcat/Km: 45300 M⁻¹ s⁻¹
